Each block holds one binder with its values, some of them ahead of it.
Key:
[1] = target: T1, Biotinylated Recombinant Human IL-7R alpha/CD127 Fc Chimera Avi-tag (human, UniProt P16871 21-239, biotin (biotinylated Avi-tag)); test: SPR
T1 chain: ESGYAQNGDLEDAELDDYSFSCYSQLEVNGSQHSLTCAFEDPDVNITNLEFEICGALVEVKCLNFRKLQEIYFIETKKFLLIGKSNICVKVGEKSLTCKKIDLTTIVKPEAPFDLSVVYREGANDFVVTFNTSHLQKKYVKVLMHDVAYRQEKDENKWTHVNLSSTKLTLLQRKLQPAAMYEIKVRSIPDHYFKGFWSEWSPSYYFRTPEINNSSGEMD

[2] = target: T2, Recombinant Human VEGF165 (human, UniProt P15692-4 1-191); test: SPR
T2 chain: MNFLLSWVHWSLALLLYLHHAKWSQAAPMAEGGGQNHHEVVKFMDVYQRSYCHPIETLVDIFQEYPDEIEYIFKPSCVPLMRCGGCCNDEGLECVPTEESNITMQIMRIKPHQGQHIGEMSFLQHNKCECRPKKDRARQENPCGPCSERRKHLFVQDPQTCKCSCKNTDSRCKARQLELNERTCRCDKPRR

[3] = target: T2, Recombinant Human VEGF165
[4] = target: T2, Recombinant Human VEGF165; test: SPR; rhVEGF165 amine-coupled to a CM5 chip; designs injected (multi-cycle kinetics, 60 s injection, 60 s dissociation); PBS with 0.05% Tween-20; 25 °C; 10 µL/min; 1:1 binding assumed, linearization method

koff [1]: 0.375 s⁻¹
B1: 5NLC scaffold (unmutated template) (other)
chain: MAQIAERLASLRSQLPPSVQLIAVSKNHPAAAIREAYAAGQRHFGENRVQEAIAKQAELTDLPDLTWHLLGKLQSNKARKAVEHFDWIHSVDSWALAERLDRIAGELGRSPKLCLQVKLLPDPNKAGWDPADLRAELPQLSQLQQVQIRGLMVIAPLGLTAAETQALFAQARTFAAELQQQAPQLRLTELSMGMSSDWPLAVAEGATWIRVGTQLFGPRSL

koff [2]: 0.0309 s⁻¹
proliferation of the VEGF-sensitive leukemia cell line U937 (CellTiter-Blue, 72 h), 1 to 100 µg/mL of the binder, percent of untreated control [3]: 50%
Kd [4]: 190 nM
B2: Sam0.7 (designed binder)
chain: LPTAEEVQKLMARYIELMDVGDIEAIVQMYADDATVEAPFGAPPIHGRERIAYFYRRMLGGGIARATLTGPVRASHNGTGAMPFRVEYVFNGQPFAMDVRVEMRFDEHGRIQTMQAYWDWVNLSVREP

koff [1]: 0.0821 s⁻¹
B3: 6YUD scaffold (unmutated template) (other)
chain: MKFAVIDRKNFTLIHFEIEKPIKPEILKEIEIPSVDTRKGVVISGRGPIWLHCFLAHKYAHTPFVAVYDPRLGAVVVQSHSELREGDVIDVVVEEILKGGVRHV

Kd [2]: 14 nM
koff [2]: 0.0006 s⁻¹
other [3]: 50%
B4: Sima3.2 (designed binder)
chain: STNISPKQGLDKAKYFSGKWYLTHVLIKDPKIVSQFCASFTPRESDGTVKIAVYLYLAIKKTSDYAIGEGKLESSGLQYTATSKVVDKKKAVLKELDERHSYTVTVLEADDSSALTHITVREGSKDYGDYYLVLTHQKDAEPSAKVKSAVTQAGLQLSQFVGTKDLGCQYDDQFTSL

— paper PMC12412469 (2025)
